Assay results taken from article PMC8322834 (Biochemistry, 2020).
No end group written: not given here. AlexaFluor 488 = AlexaFluor 488 dye

Target: DnaK (E. coli Hsp70 chaperone), ADP-state (E. coli, UniProt P0A6Y8 1-638)
Assay: fluorescence polarisation

DnaK (E. coli Hsp70 chaperone), ADP-state, sequence (P0A6Y8 whole entry): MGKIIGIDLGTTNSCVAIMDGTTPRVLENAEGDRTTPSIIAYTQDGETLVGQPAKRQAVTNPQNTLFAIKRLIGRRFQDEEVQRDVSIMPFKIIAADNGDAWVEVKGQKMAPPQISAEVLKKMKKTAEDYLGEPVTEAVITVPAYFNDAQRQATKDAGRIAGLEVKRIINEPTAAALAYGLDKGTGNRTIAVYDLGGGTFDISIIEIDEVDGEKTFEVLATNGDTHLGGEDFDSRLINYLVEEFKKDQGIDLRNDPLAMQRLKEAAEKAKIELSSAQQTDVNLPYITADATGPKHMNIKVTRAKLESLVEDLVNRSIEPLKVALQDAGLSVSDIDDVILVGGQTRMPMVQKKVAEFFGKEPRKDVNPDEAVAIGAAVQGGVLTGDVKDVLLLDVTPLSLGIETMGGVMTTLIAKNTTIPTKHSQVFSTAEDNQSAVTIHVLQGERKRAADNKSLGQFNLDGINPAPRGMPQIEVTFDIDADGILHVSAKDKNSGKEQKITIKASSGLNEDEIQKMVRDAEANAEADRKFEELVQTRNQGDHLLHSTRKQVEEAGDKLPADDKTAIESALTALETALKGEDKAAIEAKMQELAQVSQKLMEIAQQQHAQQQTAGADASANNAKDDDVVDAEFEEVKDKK

RRGKKLLLLLKKKGC(AlexaFluor 488) [KLR-70-C-AF488, AlexaFluor 488-conjugated KLR-70 peptide] showed a Kd of 1.73 µM.
